This data set deals with the molecule itself. Briefly: AUC.

B1: MxiN (recombinant, from pET15b) (natural protein)
chain: MKVCNMQKGTLPVSRHHAYDGVVIKRIEKELCKTIKDRDTESKKKAICVIKDATKKAESLRIDAVCDGYQIGIQTAFEHIIDYICEWKLKQNENRRNIEDYITSLLSENLHDERIISTLLEQWLSSLRNTVTELKVVLPKCNLALRKKLELDLHKYRSDVKIILKYSEGNNYIFCSGNQVVEFSPQDVISGVKIELAEKLTKNDKKYFKELAHKKLRQIAEDLLKENPVND
For B1, the “stoichiometry N” value came to 2.

One may read the stoichiometry N as the number of molecules, sites or subunits per partner or assembly.

These data come from paper PMC5910026 (Biochemistry, 2018).
